Experimental data from article PMC8814668, “Mechanism of Atg9 recruitment by Atg11 in the cytoplasm-to-vacuole targeting pathway” (The Journal of Biological Chemistry, 2022).
“And” between values parts separate entries of the source, which are not always exact repeats. Equal values may be shown once.

B1: Atg9-NTD(1–285) (domain or fragment, S. cerevisiae, UniProt Q12142 1-285, looked up)
chain: MERDEYQLPNSHGKNTFLSRIFGLQSDEVNPSLNSQEMSNFPLPDIERGSSLLHSTNDSREDVDENDLRVPESDQGTSTEEEDEVDEEQVQAYAPQISDGLDGDHQLNSVTSKENVLETEKSNLERLVEGSTDDSVPKVGQLSSEEEEDNEFINNDGFDDDTPLFQKSKIHEFSSKKSNTIEDGKRPLFFRHILQNNRPQRDTQKLFTSSNAIHHDKDKSANNGPRNINGNQKHGTKYFGSATQPRFTGSPLNNTNRFTKLFPLRKPNLLSNISVLNNTPEDRIN
notes: Atg9, S. cerevisiae, N-terminal disordered domain, residues 1-285; The EGFP tag was cleaved with 3C protease for the sample of the resonance assignment; also called Atg9 NTD (residues 1–285); fragment 1 to 285
B2: Atg9-NTD-(1–255)-mCherry, wild type (domain or fragment, S. cerevisiae, UniProt Q12142 1-255, looked up)
chain: MERDEYQLPNSHGKNTFLSRIFGLQSDEVNPSLNSQEMSNFPLPDIERGSSLLHSTNDSREDVDENDLRVPESDQGTSTEEEDEVDEEQVQAYAPQISDGLDGDHQLNSVTSKENVLETEKSNLERLVEGSTDDSVPKVGQLSSEEEEDNEFINNDGFDDDTPLFQKSKIHEFSSKKSNTIEDGKRPLFFRHILQNNRPQRDTQKLFTSSNAIHHDKDKSANNGPRNINGNQKHGTKYFGSATQPRFTGSPLNNT
notes: mCherry is named for the bead assay; also called mCherry-tagged Atg9-NTD; not shown: mCherry, C-terminal, kept
B3: Atg9-NTD (29–255)-mCherry (domain or fragment, S. cerevisiae, UniProt Q12142 29-255, looked up)
chain: VNPSLNSQEMSNFPLPDIERGSSLLHSTNDSREDVDENDLRVPESDQGTSTEEEDEVDEEQVQAYAPQISDGLDGDHQLNSVTSKENVLETEKSNLERLVEGSTDDSVPKVGQLSSEEEEDNEFINNDGFDDDTPLFQKSKIHEFSSKKSNTIEDGKRPLFFRHILQNNRPQRDTQKLFTSSNAIHHDKDKSANNGPRNINGNQKHGTKYFGSATQPRFTGSPLNNT
notes: also called shorter construct of Atg9-NTD; not shown: mCherry, C-terminal, kept

Key:
[1] = target: T1, EGFP-Atg11 (full-length yeast Atg11) (yeast (S. cerevisiae), UniProt Q12527 1-1178); assay: NMR titration; 1H-15N HSQC of 0.2 mM labelled Atg9-NTD, unlabelled EGFP-Atg11 added stepwise (0.02, 0.04, 0.08 mM); 20 mM Bis-Tris pH 6, 300 mM NaCl; 298 K, 600 MHz; read-out: loss of peak intensity; settings: both partners purified
T1 construct: Atg11, S. cerevisiae, full length, 135 kDa; also called EGFP tagged Atg11; not shown: EGFP, N-terminal, kept
T1 sequence (looked up): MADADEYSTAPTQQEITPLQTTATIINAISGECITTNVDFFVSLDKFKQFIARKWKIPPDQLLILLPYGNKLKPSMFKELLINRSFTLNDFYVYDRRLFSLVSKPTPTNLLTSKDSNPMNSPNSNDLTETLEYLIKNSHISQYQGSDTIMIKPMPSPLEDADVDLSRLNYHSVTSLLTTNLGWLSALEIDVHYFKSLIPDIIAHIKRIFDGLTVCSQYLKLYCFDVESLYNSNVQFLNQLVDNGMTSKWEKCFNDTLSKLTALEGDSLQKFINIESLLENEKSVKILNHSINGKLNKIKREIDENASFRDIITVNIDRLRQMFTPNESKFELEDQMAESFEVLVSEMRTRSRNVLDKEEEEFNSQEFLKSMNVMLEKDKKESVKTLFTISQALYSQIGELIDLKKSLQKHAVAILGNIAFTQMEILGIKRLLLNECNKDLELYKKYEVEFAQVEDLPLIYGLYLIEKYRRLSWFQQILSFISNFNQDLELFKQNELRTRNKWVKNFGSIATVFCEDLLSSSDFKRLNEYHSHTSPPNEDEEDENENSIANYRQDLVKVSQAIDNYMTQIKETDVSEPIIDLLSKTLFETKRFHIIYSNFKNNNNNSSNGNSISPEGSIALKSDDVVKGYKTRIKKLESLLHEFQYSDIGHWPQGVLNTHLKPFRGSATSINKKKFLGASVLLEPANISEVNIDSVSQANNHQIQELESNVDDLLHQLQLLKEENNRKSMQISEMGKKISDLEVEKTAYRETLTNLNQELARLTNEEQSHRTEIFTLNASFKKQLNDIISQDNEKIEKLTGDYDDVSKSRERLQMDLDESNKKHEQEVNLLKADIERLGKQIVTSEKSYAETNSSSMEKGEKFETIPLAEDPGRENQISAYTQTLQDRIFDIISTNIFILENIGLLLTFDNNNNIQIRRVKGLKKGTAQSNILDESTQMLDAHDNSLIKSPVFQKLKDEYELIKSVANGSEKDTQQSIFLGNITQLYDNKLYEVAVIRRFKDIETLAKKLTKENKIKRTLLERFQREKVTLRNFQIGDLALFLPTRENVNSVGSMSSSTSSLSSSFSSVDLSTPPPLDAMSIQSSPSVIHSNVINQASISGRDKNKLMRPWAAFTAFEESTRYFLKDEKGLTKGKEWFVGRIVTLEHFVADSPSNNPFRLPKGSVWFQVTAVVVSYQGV

[2] = target: T1, EGFP-Atg11 (full-length yeast Atg11); assay: ITC; Atg9-NTD (300 to 500 μM, syringe) into EGFP-Atg11 (50 to 100 μM, cell); 25 °C; 20 mM Tris pH 7.4, 300 mM NaCl; single binding site; two replicates; settings: both partners purified

Row | Binder | binding result [1] | Kd [2] [nM] | dH [2] [kJ/mol] | stoichiometry N [2]
1 | B1 | binds | – | – | –
2 | B2 | – | 1090 | -24.6 ± 5.6 | 0.931 and 0.94
3 | B3 | binds | – | – | –
